This note sets out measurements from US20200157237A1 (BROAD INSTITUTE, published 2020).

One series has as its target T1, Il12rb1 (mouse, UniProt Q60837 20-738).
T1 construct: whole, on cells; Tie to CD5L:p40 rests on loss of staining and of effect in knockout cells; also called Ilrb1
T1 sequence (looked up): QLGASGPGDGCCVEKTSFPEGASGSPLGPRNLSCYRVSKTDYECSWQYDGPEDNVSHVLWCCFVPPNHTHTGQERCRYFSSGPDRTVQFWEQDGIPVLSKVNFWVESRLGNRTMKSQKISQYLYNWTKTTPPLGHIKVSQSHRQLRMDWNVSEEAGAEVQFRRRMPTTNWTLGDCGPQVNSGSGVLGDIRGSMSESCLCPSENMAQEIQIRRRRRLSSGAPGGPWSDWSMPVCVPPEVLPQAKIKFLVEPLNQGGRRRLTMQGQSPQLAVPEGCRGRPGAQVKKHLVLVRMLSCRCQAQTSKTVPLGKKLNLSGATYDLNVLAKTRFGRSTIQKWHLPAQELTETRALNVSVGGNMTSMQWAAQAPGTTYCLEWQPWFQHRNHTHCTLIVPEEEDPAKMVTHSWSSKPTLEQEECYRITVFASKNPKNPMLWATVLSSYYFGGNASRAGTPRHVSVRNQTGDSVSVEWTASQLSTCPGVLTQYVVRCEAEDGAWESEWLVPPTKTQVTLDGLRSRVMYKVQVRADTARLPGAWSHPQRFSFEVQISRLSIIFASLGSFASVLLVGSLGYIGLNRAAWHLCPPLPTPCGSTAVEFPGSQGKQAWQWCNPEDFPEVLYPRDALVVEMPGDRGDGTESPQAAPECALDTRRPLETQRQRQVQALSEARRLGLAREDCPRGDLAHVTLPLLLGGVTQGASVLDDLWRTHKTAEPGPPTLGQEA
As to the kind of experiment: flow cytometry, His-tagged CD5L:p40 and anti-His antibody on T cells of wildtype or Il12rb1KO mice (FIG. 56A). An excerpt:
FIG. 56A-F—Recombinant CD5L:p40 can bind to Th17 cells directly and alters T cell signaling pathways and metabolism. A) recombinant CD5L:p40 (his-tagged) were used to stain pathogenic Th17 cells (IL-1b+IL-6+IL-23),Th1 cells (IL-12) or Th0 cells differentiated from naïve T cells isolated from wildtype or Il12rb1KO mice followed by anti-His antibodies and analysis by flow cytometry. B-D) As Stat3 and Stat4 regulate IL-17 responses, we analyzed pStat3 and pStat4 expression. B-C) CD5L:p40 suppresses pStat3. 28 nM recombinant CD5L:p40 were used to stimulate naïve T cells in the presence of 10 ug/ml of anti-CD3 antibodies (TCR) with or without other indicated cytokines (B) or to stimulate Th17p cells (C) and cells were harvested for phosphoflow preparation and analysis of pStat3 at the indicated time points. D) CD5L:p40 suppresses pStat4 but not pTyk2. Western blotting analysis of pStat4 and pTyk2 expression by Th17p cells (equal protein loaded per lane) differentiated from naïve T cells isolated from wildtype mice and subjected to stimulation by either control (C), CD5L monomer (L), CD5L homodimer (LL), CD5L:p40 (L4) or p40:p40 homodimer (44) for the indicated time. E) CD5L:p40 suppresses pRictorY, pS6 and p38. To study whether CD5L:p40 influence other signaling pathways, we analysed several other phospho-proteins as indicated. […]
On the technique in general: Flow cytometry measures light scatter and fluorescence of single cells or particles in a stream.

Series [1] deals with the molecule itself. The series can be described thus: purification of recombinant CD5L (FIG. 8A).

B1: recombinant CD5L:p40 heterodimer (genetically linked mouse p40-linker-CD5L with His tag) (ligand)
chain: MWELEKDVYVVEVDWTPDAPGETVNLTCDTPEEDDITWTSDQRHGVIGSGKTLTITVKEFLDAGQYTCHKGGETLSHSHLLLHKKENGIWSTEILKNFKNKTFLKCEAPNYSGRFTCSWLVQRNMDLKFNIKSSSSSPDSRAVTCGMASLSAEKVTLDQRDYEKYSVSCQEDVTCPTAEETLPIELALEARQQNKYENYSTSFFIRDIIKPDPPKNLQMKPLKNSQVEVSWEYPDSWSTPHSYFSLKFFVRIQRKKEKMKETEEGCNQKGAFLVEKTSTEVQCKGGNVCVQAQDRYYNSSCSKWACVPCRVRSGGGSGGGSGGGSGGESPTKVQLVGGAHRCEGRVEVEHNGQWGTVCDDGWDRRDVAVVCRELNCGAVIQTPRGASYQPPASEQRVLIQGVDCNGTEDTLAQCELNYDVFDCSHEEDAGAQCENPDSDLLFIPEDVRLVDGPGHCQGRVEVLHQSQWSTVCKAGWNLQVSKVVCRQLGCGRALLTYGSCNKSTQGKGPIWMGKMSCSGQEANLRSCLLSRLENNCTHGEDTWMECEDPFELKLVGGDTPCSGRLEVLHKGSWGSVCDDNWGEKEDQVVCKQLGCGKSLHPSPKTRKIYGPGAGRIWLDDVNCSGKEQSLEFCRHRLWGYHDCTHKEDVEVICTDFDVTGHHHHHHHHGGQ
notes: also called mCD5L:p40; rCD5L:p40
For the molecule B1, in the series with Il12rb1, the binding result was “binds”.

B2: recombinant CD5L monomer with His tag (mCD5L construct) (ligand)
chain: ESPTKVQLVGGAHRCEGRVEVEHNGQWGTVCDDGWDRRDVAVVCRELNCGAVIQTPRGASYQPPASEQRVLIQGVDCNGTEDTLAQCELNYDVFDCSHEEDAGAQCENPDSDLLFIPEDVRLVDGPGHCQGRVEVLHQSQWSTVCKAGWNLQVSKVVCRQLGCGRALLTYGSCNKSTQGKGPIWMGKMSCSGQEANLRSCLLSRLENNCTHGEDTWMECEDPFELKLVGGDTPCSGRLEVLHKGSWGSVCDDNWGEKEDQVVCKQLGCGKSLHPSPKTRKIYGPGAGRIWLDDVNCSGKEQSLEFCRHRLWGYHDCTHKEDVEVICTDFDVTGHHHHHHH
notes: Made by Biolegend in 293E cells, purified on Ni Sepharose and Superdex S200 (monomer fraction); also called soluble CD5L; sCD5L
With B2, the binding result in series [1] is recorded as “binds”.
